The values that follow come from US12391751B2, “Antibody against advanced glycation end products and use thereof” (Bloom Technology Corporation, priority 2018, dated 2025).

One assay concerns α-SMA. The assay is described as follows: Endothelial-to-mesenchymal transition inhibition test, real-time PCR (Example 15). It counts as cell-based, human. The conditions noted are these: HUVEC; antibody pre-reacted with Glycer-AGEs-BSA. The protocol:
(§1) 10 μL of Glycer-AGEs-BSA (10 mg/mL) prepared in Example 1, PBS, and 90 μL of SJ-5 (10 mg/mL) or a control antibody (10 mg/mL) were added to a 1.5 mL tube (Watson). Alternatively, 90 μL of a PBS solution of control BSA (10 mg/mL) was added. These solutions were left standing at room temperature for 10 minutes. Then, a supernatant was recovered by centrifugation at 14000 rpm for 15 minutes using a centrifuge (Thermo Fisher Scientific Inc.).
(§2) HUVEC was cultured in a 10 cm dish using 10 mL of a medium for HUVEC.
(§3) The cultured HUVEC was washed with 10 mL of PBS. Then, 1 mL of trypsin-EDTA was added thereto and left standing at room temperature for 3 minutes. HUVEC thus left standing was confirmed to be detached from the dish, and trypsin-EDTA was neutralized by the addition of 10 mL of a medium for HUVEC. After the neutralization, the whole amount was transferred to a 50 mL tube and centrifuged at 1500 rpm for 3 minutes using a centrifuge.
(§4) After the centrifugation, the supernatant was discarded, and precipitated cells were resuspended by the addition of 1 mL of a medium for HUVEC. A 10 μL aliquot from the resuspension was mixed with 10 μL of Trypan Blue, and 10 μL thereof was added to a counting chamber. Then, the number of live cells was counted in Auto Cell Counter EVE. The cell suspension was diluted into 2.5×10^5 cells/mL with a medium for HUVEC and inoculated at 400 μL/well to the Matrigel prepared in (1). After the inoculation, each reaction solution prepared in (2) was added at 100 μL/well, followed by culture for 8 hours in a CO2 incubator.
(§5) Each well was washed three times with 1 mL of PBS, and Cell Recovery Solution (Corning Inc.) was added at 500 μL/well.
(§6) The cells and the Matrigel matrix were scraped off using Blue Chip (Watson), recovered into a 1.5 mL tube, and transferred to the 1.5 mL tube after rinsing of each well again with 500 μL of Cell Recovery Solution. The 1.5 mL tube was mixed by inversion five times and then left standing on ice for 1 hour to confirm that the Matrigel matrix was completely degraded. After the Matrigel matrix degradation, a supernatant was discarded by centrifugation at 800 rpm at 4° C. Precipitated cells were gently suspended in 1 mL of ice-cooled PBS and centrifuged at 800 rpm at 4° C. to discard a supernatant. Precipitated cells were gently suspended again in 1 mL of ice-cooled PBS and centrifuged at 800 rpm at 4° C.
(§7) 125 μL of CellAmp Washing Buffer attached to the kit was added to the cells precipitated by centrifugation, and mixed. […]
(§8) After the addition, real-time PCR was performed with QuantStudio™ 12K Flex real-time PCR system (Thermo Fisher Scientific Inc.) to quantify gene expression levels. […]

The test system of another assay is CD31. The assay is described as above. It counts as cell-based, human. The settings on record: HUVEC; antibody pre-reacted with Glycer-AGEs-BSA. The protocol:
as §1, §2, §3, §4, §5, §6, §7, §8

The next assay addresses T1, GAL13-BSA (Bos taurus, UniProt P02769).
T1 construct: purchased Sigma-Aldrich Co. LLC
The experiment in a line: Reactivity of novel monoclonal antibody by direct ELISA (Example 5). It counts as binding. The settings on record: immobilized GAL13-BSA 1 μg/mL, POD-labeled antibody dilution series from 4 μg/mL. The protocol:
BSA modified with the novel structure derived from Glycer-AGEs (GAL13-BSA) was added at 100 μL/well with a concentration of 1 μg/mL and immobilized overnight at 4° C. The plate was washed three times with PBS containing 0.05% (v/v) Tween 20 (PBS-T) and then blocked with PBS-T containing 0.5% (w/v) gelatin for 1 hour. The POD-labeled novel monoclonal antibody SJ-5 prepared in Example 4 and the anti-glyceraldehyde-derived AGEs polyclonal antibody as a control were serially diluted into 4-fold dilutions from 4 μg/mL to 0.06254 μg/mL to prepare dilution series, which were then added at 100 μL/well to the antigen-immobilized plate and left standing for 1 hour. After washing, an o-phenylenediamine solution (100 μL) prepared into 0.5 mg/mL with a 0.1 M citrate-phosphate buffer solution (pH 5.0) containing 0.02% (w/v) hydrogen peroxide was added to each well and left standing at 25° C. for 10 minutes. Then, color reaction was terminated by the addition of a 1 M sulfuric acid solution (50 μL) to each well. Then, absorbance at 490 nm was measured with a microplate reader.
(ELISA stands for enzyme-linked immunosorbent assay.)

T1 sequence (P02769 25-607): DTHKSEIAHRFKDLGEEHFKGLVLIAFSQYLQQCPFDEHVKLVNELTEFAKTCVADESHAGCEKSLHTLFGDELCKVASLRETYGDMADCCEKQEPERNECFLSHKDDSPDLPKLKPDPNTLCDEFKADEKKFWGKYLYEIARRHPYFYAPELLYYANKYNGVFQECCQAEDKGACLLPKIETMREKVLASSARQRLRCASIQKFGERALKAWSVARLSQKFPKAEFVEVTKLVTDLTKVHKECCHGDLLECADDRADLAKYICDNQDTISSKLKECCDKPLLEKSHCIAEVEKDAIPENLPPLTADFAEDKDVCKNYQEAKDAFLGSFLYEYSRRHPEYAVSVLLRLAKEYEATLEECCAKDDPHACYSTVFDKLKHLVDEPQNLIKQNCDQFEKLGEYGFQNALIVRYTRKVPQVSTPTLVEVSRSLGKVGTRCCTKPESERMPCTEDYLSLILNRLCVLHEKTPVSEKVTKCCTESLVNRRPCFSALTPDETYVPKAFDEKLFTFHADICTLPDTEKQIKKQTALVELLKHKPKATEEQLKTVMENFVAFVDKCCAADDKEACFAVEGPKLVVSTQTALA

B1: SJ-5: mouse monoclonal antibody raised against GAL13-MSA; heavy-chain variable region SEQ ID NO 4, light-chain variable region SEQ ID NO 8 (antibody, listed as Mus musculus, V domains shown)
VH: EVMLVESGGRLVKPGGSLKLSCAASGFTFSSYGMSWVRQTPEKRLEWVATISGGGSYTYYPDSVKGRFTISRDNVKNNLYLQMSSLRSEDTALYYCARRGAYGDYGWFAYWGQGTLVTVSA
VL: DIVLTQSPATLSVTPGDSVSLSCRASQSINNNLHWYQQKSHESPRLLIKCASQSISGIPSRFSGSGSGTDFTLSINSVETEDFGMYFCQQSNSWPLTFGAGTKLELK
For B1, the “suppression of α-SMA increase caused by Glycer-AGEs-BSA” value in the assay with α-SMA was “suppressible”. Further, the “suppression of CD31 decrease caused by Glycer-AGEs-BSA” value in the assay with CD31 was “suppressible”. In addition, the “reactivity with GAL13-BSA (absorbance at 490 nm)” value with GAL13-BSA is recorded as “react favorably”.
